Consider one protein from patent US20210361653.

For the series, the target named is His-BRD4-N (amino acids 1-500), O60885.

B1: GST-SPOP (protein)
chain: MSRVPSPPPPAEMSSGPVAESWCYTQIKVVKFSYMWTINNFSFCREEMGEVIKSSTFSSGANDKLKWCLRVNPKGLDEESKDYLSLYLLLVSCPKSEVRAKFKFSILNAKGEETKAMESQRAYRFVQGKDWGFKKFIRRDFLLDEANGLLPDDKLTLFCEVSVVQDSVNISGQNTMNMVKVPECRLADELGGLWENSRFTDCCLCVAGQEFQAHKAILAARSPVFSAMFEHEMEESKKNRVEINDVEPEVFKEMMCFIYTGKAPNLDKMADDLLAAADKYALERLKVMCEDALCSNLSVENAAEILILADLHSADQLKTQAVDFINYHASDVLETSGWKSMVVSHPHLVAEAYRSLASAQCPFLGPPRKRLKQS
For B1, the “in vitro ubiquitination assay” value is reported as “The SPOP-CULLIN3-RBX1 complex was shown to catalyzed BRD4 ubiquitination in vitro”.
